Measurements taken from the domain aggregation screens of Martell et al. (2025).

experiment: soluble fraction after stress (log2 fold change); higher = more stays soluble; pooled small domains, quantitative proteomics; settings: stress: 75 degC
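Note: 20 min heating vs room temperature control held 20 min.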

Row | Sequence | soluble fraction (log2)
1 | HMNKEDIASNEKLLGLLNHMSKVLKDIDFIKDDRPMIVRKINHIFKKATLSEEEINILRGVLSAIENHS | -1.46
2 | HMNKEKLLEMFESMSIIIVQSLEEKEQTEDRIETELFNEAKTPRYSTLTKQDIQSVIRNILITVGV | -1.76
3 | HMNKELVVPDLTDMRVKDAEFEAHQVGMRTEIVDSVYVRRLKRGYVYKQNPVPGSKVKKGRRIALTINAV | 0.212
4 | HMNKETYIDALERKLWDRLDPDQLRDIISYYKDYFAMEAAKGISEEETIRKLGDPALLAKSILAAE | -0.332
5 | HMNKEVDLPNFVGMTKENAQAQADKIKIKLEFEEEYSSDVEEGKIISQNPEYKENYKIKEKSTVSLKI | 0.312
6 | HMNKFKVNERVRVIATGEIGIVKGREILPVEGSKRVNIEYLVKVGNGFSNWKAFSKKELEPVR | -1.88
7 | HMNKFRVGDEVEIVKLDKTIQHFGGEEVLSPVGTKTYITYVDVTGKEIEIDKDIYSYHADDLTLV | ≥ 1.04
8 | HMNKKLEMKIEQLDLSVRLFNSLKRSGIYTVAQIIKLTEEDVMRFRSLGRKSFKELKEKLSEHGLEFE | -2.14
9 | HMNKLKALREEQGLSMMEIAKQLNMPYTTYVNYEKGTREPNSEMLIKFSKFFNVTIDYLIGNSEQKN | -2.48
10 | HMNKNLQLMINEIKKGLASEDIETRKKSVLMLSRIDAPEIIQVLEPLKDDSSEEIRKISSKIISVLSKKYT | -0.108
11 | HMNKNQGVTTTNLNFRKSASTSSLVLYTIPKNTTLDILDKLPSGWYKVKYKGLTGYVSGSYV | -2.99
12 | HMNKPTFNIFNNRLTFPFKGDITIYSLDGKRVFSAYNESSVNLSFLNRGSYISEFNNSRSVLIL | -1.34
13 | HMNKRKQRINDLMDLIREQPALSIKNLAEMLNVSEMTIRRDMAYLKSNNLLNRAHGMNFLNS | -0.407
14 | HMNKSEFLNELEKRIRVLEKNEIKDILAEYSQHIDMRMGSGLSEAEAIKDFGDMDDLAAEILEAY | -0.277
15 | HMNKVDEEKNAELVSTIQNKFSDVSAATKKKVKAFMAEHDIPNFKNADEIPTANLEAIVAMLNED | 0.255
16 | HMNKYNNIEDLKEEDFENISEKYQVPVSFVKSKLDDLINWHEKNPQKNHYKNYLSALRDWVKRDSLKIKL | -0.132
17 | HMNLDELGNRIREQRIKQRLKQQDIANALMLSAQAVSKWERGENAPDISVLPDLVKILGVSVDWLLTGP | -0.949
18 | HMNLDPHVVGHRLRDLRTRRDLTLADVAAETDISVSTLSRLESGSRRATLELLVPLARTYRVTLDELVDA | -1.15
19 | HMNLDPIKRKSEILSLFESHKNVKFNEIFFEKVNKEFTVLTFLIILELVKDNIIDFSQTQEGLIEFFTR | -0.00641
20 | HMNLDVPGIIKRAKQALNLKRDSELAEFLGVSRATVTNWAARNSIDFRLLLDKLGNTVDYNWLLLGKGNPK | -1.11
21 | HMNLDYKQFQVFNNIETLNTFTNLLSDNKIDFEVENNSKIFDPSFANNDFEKEYIVKIHPNDFEKVY | 0.0557
22 | HMNLEIGAIIKSLRAKHKYTQEQLSAFLGVTPQAVSRWEAGNGYPDIELLPAIARFFEVSTDELLGL | -2.2
23 | HMNLGDLYVIMEIAGQRDDVSARLMNREGQTFLVKTGTKLKSGDVVKEITPTYIKTDHDGEEAFLYF | -0.78
24 | HMNLGETIYNLRKEKKLSQGDLAEQLSVSRQSVSKWENNSAVPDLDKLVKLSTIFGVSLDELVKG | -0.0337

Row | Sequence | soluble fraction (log2)
25 | HMNLGLTGDPSVLYSILLQRGDSSRADLQRQTGWSLSKTTLVLNQLLAQKLIVQVGAGRSTQYRVIN | -2.78
26 | HMNLGNLAYESKVTKQVLNMIRPLHPEYSSDDITRAVKEILSEEGSRQRRVDEIARGALDVLMGNPR | 0.0661
27 | HMNLLQAHLLRLESAALLAEVREVDRQLSRWLHPLTPQSDVAIIDERNWEAAVARLTELGVHIEEGRW | -3.05
28 | HMNLNIGNNIKNIRKSKNMTQTDFAELMGLSRSYIGDLENNRSNPSIKTLEAIARALDVPIVALIN | -0.528
29 | HMNLSSETLSEMEARIGQMGVVELQDRRAYLLQEQEGTQNPSRLKEIADELSAIQKALVALV | 0.705
30 | HMNLTEIGQRIRDRREELGLSQDRLAKLGGLPRVTINQLETGSIGDLGVSKLLNLLDLLGLTLDA | -0.559
31 | HMNLTLMDALKAAGLPVDGINLSMVNKMMEEQMPIDKTSLNQMYQLVQDNKDINVTTLVELKRLG | 0.0398
32 | HMNLTSNDAYSRILNAIITSELRPGDTVTEIQLAQKFGFGRTPVREAIMRLENEGFIVSAERKKRVYIL | -2.97
33 | HMNLTSSDIQKILSYALLADNSITLNSIEESMASLKLKKMSAEQLIELLEVSSMVLRNTNNSWSIL | -2.28
34 | HMNMENIADKIGKIYESLPEDLKLMIKYRDIDDLTYDEIAVKADLPVGTVRSRLHRAREQLLKELEKN | -0.233
35 | HMNMEPNWLKWAKQLAALAQNGLTYSDNPYEIERYEHIRRIAAEMMAEGFELDTKTILELFPREKG | -2.68
36 | HMNMFDMRKTGARISQLRRAAGLTQAELAEKLGISYQAVSSWERGSNMPDIGKLLDLARILNTTVDALLSA | -1.19
37 | HMNMGKRFKELRKERKFTQQQLADRIGLAPSAISSYESGARYPSYDVLIKYSKIFHVTTDYLLG | -2.79
38 | HMNMKVGPVPANVVPANIKAHVSNNYSKYQIVQMMQNDKGYQVKLSNGTDLYYDKDGNILKTS | 0.0129
39 | HMNMSVGAALRRRRNELGMTLRELADEAELTSGFLSQVENDRVSPSLKSLGRIAEVLRIPLFQLLS | -1.72
40 | HMNMSVVEKVIQQISNPGRDSLIPILQAVQEEEGFISRESVIEIGKALDLPASKIYGVATFYNQFR | -0.206
41 | HMNMTDVLVVNQTVRGGTQITESMLSVKKVDKSSLPDNYLKASLKDEVVGKYFDLGLTSGGVLTKDNISVS | -0.154
42 | HMNMVSGHLQIKKGYYYVVLSYYDNRNKRHVKYVSTGLPEKGNKRKAEAALARVRSEFEPPQE | -3.95
43 | HMNNDFIVKSTDSHKVNLRSQPDTHADIIKRLDDHTIVEKLKTVRKNWYLVQLKDTTTQGYVHKSQLERV | -0.357
44 | HMNNDFVERLRKLFGHASMAEIARRIDVPHATIRNYFQGRLPAPEVLIKLARETGVSLNWLLTGEGKMFA | -1.19
45 | HMNNENELSSIISKVLEENPAEKERFLNGEKKLAGFFMGKIMKATKGTADPKKAAQLLNEIL | 0.311
46 | HMNNFNVVVGKAIKNSFNTRENYITINAGKVLGIKTDMGVINDKGIVGIVEKTSKDFATIQSVLNIKS | 0.177
47 | HMNNGTDGLTTRLRRAILAGQYTFKERLPSERQLAEHFNTSRGTVRKVLQRLTTMNLVEQRAGSGTYVRYG | -0.302
48 | HMNNIGSKIKSAKILNNLDDNQLSEITGIDKLQLRSIQDGQVNPTKMELEIISKALKLPTNYFTK | -0.115

Row | Sequence | soluble fraction (log2)
49 | HMNNIIYLIANKLDVGKRLDQFITIRTEFSRQRVINLIEDGYVKLNNKIINLKKYKIKGDEKIEITIPEIR | -1.32
50 | HMNNKVAVKSGYYFEIFNKEEIPTTLAKTKQKVKINNIQYDLYQGMSLDDERKIDDMFGDRMGYSIDDY | -1.07
51 | HMNNKVAVKSGYYFELFDKDEIPATLEKMKQKVKIDNIKYDLYQGTSLEDERKIDTMFGEKMGYSIDDYI | -0.0968
52 | HMNNLVTRREVEILGWIKEGKTTSDIAGILSLSPFTVKNHVQNILKKLGARSRSHAVAQAINLGLLH | -1.4
53 | HMNNPISMQKLRQVIRLYGQGKGTKSINSMLGVSRNTIKKYLQVYHSSGINYESFLAMSDKELSAVFLV | -0.509
54 | HMNNQVTFSKFLNEVEDGRVVEVNIQGNNITGVLSDGSKFKTFSPNYPNLVEKLSEKGVSINASPL | 0.0934
55 | HMNNTIKFSVDENNSGKRLDVYLTENINHLTRSFLKKLIEKEQVKLNKKVLTSPATKVKTKDQITINIIE | 0.0625
56 | HMNNWYESSIKSLVEEYFREHGFSVVFDSSEFWDVFIEKYHKQIPSSQIALFDQVAAEARSYAFNKK | -0.0798
57 | HMNPETLTNGSVVKMSKANLSDELIIDMINNSPARFDLSSGALRSLEGEGVSKAVIESMKRATSG | 0.283
58 | HMNPETLTNSSVIKMSKANLSDELITDMILNSPVKFDLSAGAIKTLESEGVTPAVLESMKNAASK | 0.131
59 | HMNPFTHEEINLMSIYNAAGTREGLIAALTEMWGYLDAEETELRELADSALAKLRGITDAEYAALELE | -1.19
60 | HMNPGAYQVKAGEGLIGLSRRYNVPVDVLASVNNLNTTSSLRVGQTITIPTAAQVNRITQQAQ | 0.216
61 | HMNPGHAERGKEIVEVFLRNNGELSMREIAEKSNITITQARRRVNKLLDQGIVEATAPVQSRNRKYRIK | 0.186
62 | HMNPIEAQIEELKNKDQKTAYQALKHLLAISETRAEVSYYFDRFVALLQDPQSYVRTRGLLLIGA | 0.584
63 | HMNPLLSAYLAEVERGLQGLTAGRRRLVLRELEAHLLDEAEARGLLTEEDMRALLMEKEPPERLAQEIAQ | -0.253
64 | HMNPMLEPAGEIRLSDGVLLRWQSERLPGDDTVRGPGSLYELGLYRVKVRVSAPQQGVRESSVELAGWRQV | -0.0501
65 | HMNPMRYLVVPSQETETWKEYLVSKEWLERKYRIETEGDNRAIPLSNLFPKIVPIELSNLEIIEKEAFS | -0.694
66 | HMNPNEVQIPDLVNKTEDEAEQILKDLKLKLVVKSEEYNENIEKGKIISQDPPYQENYTIKEHSEISIVIS | 0.335
67 | HMNPSRPASKEELLGLFEHLERALDAVTFFRPAEKKPVVVQTLRAMLTKASFTEQDIRTMRGVIAALEN | -1.59
68 | HMNPYQDSILLWKSFDTPLTNEDFMGLSKEELRIARNEIYAAYGRIFTSQDLIDYFNSKPWYQGTTPA | -0.313
69 | HMNQDQDLSRIKGIGPEMVDRLHAQGVETLEQIAAMQMEQLKKLDQQISGNGKAVREQWAEQAKQLLTT | 0.099
70 | HMNQEFRMPNAIKGVELSEENKQQLTQGEKVFLEGMTSAKGSLFDAYVYIDQEKKTLAFDFPEK | 0.0813
